PMC4317567

molecular target: fTHP-15 fluorogenic triple-helical peptide substrate

Substance | Km of triple-helical peptidase activity (hydrolysis of fTHP-15), 27 °C, pH 7.5
MT1-MMP catalytic domain, wild type (enzyme) | 8.9 µM
MT1-MMP ectodomain N347A (enzyme) | 790 nM
MT1-MMP ectodomain R345A (enzyme) | 1.7 µM
MT1-MMP ectodomain E392A (enzyme) | 1.6 µM

Now from value to substance:

Km of triple-helical peptidase activity (hydrolysis of fTHP-15), 27 °C, pH 7.5 | Substance
820 nM | MT1-MMP soluble ectodomain, wild type (C127S-substituted) (enzyme)
4.3 µM | MT1-MMP ectodomain R343A (enzyme)
980 nM | MT1-MMP ectodomain R330A (enzyme)
1.7 µM | MT1-MMP ectodomain F360G (enzyme)
